# Results from PMC4101993 (Nature structural & molecular biology, 2014).
# B1: Purified EttA (gel filtration with static light scattering) (natural protein, E. coli)
# chain: MAQFVYTMHRVGKVVPPKRHILKNISLSFFPGAKIGVLGLNGAGKSTLLRIMAGIDKDIEGEARPQPDIKIGYLPQEPQLNPEHTVRESIEEAVSEVVNALKRLDEVYALYADPDADFDKLAAEQGRLEEIIQAHDGHNLNVQLERAADALRLPDWDAKIANLSGGERRRVALCRLLLEKPDMLLLDEPTNHLDAESVAWLERFLHDFEGTVVAITHDRYFLDNVAGWILELDRGEGIPWEGNYSSWLEQKDQRLAQEASQEAARRKSIEKELEWVRQGTKGRQSKGKARLARFEELNSTEYQKRNETNELFIPPGPRLGDKVLEVSNLRKSYGDRLLIDDLSFSIPKGAIVGIIGPNGAGKSTLFRMISGQEQPDSGTITLGETVKLASVDQFRDSMDNSKTVWEEVSGGLDIMKIGNTEMPSRAYVGRFNFKGVDQGKRVGELSGGERGRLHLAKLLQVGGNMLLLDEPTNDLDIETLRALENALLEFPGCAMVISHDRWFLDRIATHILDYQDEGKVEFFEGNFTEYEEYKKRTLGADALEPKRIKYKRIAK
# Target: the molecule itself
# Test: SEC-MALS
protein,measurement,value
B1,stoichiometry N,2
